From patent US20190111032A1 (GEORGIA STATE UNIVERSITY RESEARCH FOUNDATION, published 2019) come the findings set out here.

The data set deals with the molecule itself. Nature of the data set: size exclusion chromatography and non-reducing SDS-PAGE. On the procedure: hCaSR-ECD (from residue Tyr²⁰ to Phe⁶¹²) (FIG. 1) was expressed in suspension culture of HEK293S (GnTI-) cells and purified from the culture medium by Ni²⁺-NTA chromatography as previously described. To deglycosylate the purified protein, hCaSR-ECD was incubated with recombinant endoglycosidase F1 (Endo F1) at a 1:100 mass ratio of Endo F1 to hCaSR-ECD²⁶ overnight at 4° C. in 10 mM Tris buffer, pH 7.4. Further separation of hCaSR-ECD from Endo F1 was achieved by size exclusion chromatography (SEC) in 10 mM HEPES (pH 7.3) buffer. hCaSR-ECD forms a homodimer, as determined by the elution volume observed in SEC.
(SEC sorts molecules by how far they enter the pores of the column.)

B1: extracellular domain of the human calcium-sensing receptor (hCaSR-ECD), residues Tyr20 to Phe612 (receptor, UniProt P41180 20-612, looked up)
chain: YGPDQRAQKKGDIILGGLFPIHFGVAAKDQDLKSRPESVECIRYNFRGFRWLQAMIFAIEEINSSPALLPNLTLGYRIFDTCNTVSKALEATLSFVAQNKIDSLNLDEFCNCSEHIPSTIAVVGATGSGVSTAVANLLGLFYIPQVSYASSSRLLSNKNQFKSFLRTIPNDEHQATAMADIIEYFRWNWVGTIAADDDYGRPGIEKFREEAEERDICIDFSELISQYSDEEEIQHVVEVIQNSTAKVIVVFSSGPDLEPLIKEIVRRNITGKIWLASEAWASSSLIAMPQYFHVVGGTIGFALKAGQIPGFREFLKKVHPRKSVHNGFAKEFWEETFNCHLQEGAKGPLPVDTFLRGHEESGDRFSNSSTAFRPLCTGDENISSVETPYIDYTHLRISYNVYLAVYSIAHALQDIYTCLPGRGLFTNGSCADIKKVEAWQVLKHLRHLNFTNNMGEQVTFDECGDLVGNYSIINWHLSPEDGSIVFKEVGYYNVYAKKGERLFINEEKILWSGFSREVPFSNCSRDCLAGTRKGIIEGEPTCCFECVECPDGEYSDETDASACNKCPDDFWSNENHTSCIAKEIEFLSWTEPF
modifications: N-glycans trimmed with endoglycosidase F1 before SEC and crystallization (expressed in HEK293S GnTI- cells)
notes: range 20-612; This entry is one protomer; also called ECD of CaSR
B1: the binding result is “binds”.
